Measurements: patent US20120087917A1

Assays:
[1] = molecular target: LOXL2 (lysyl oxidase-like 2) (human) (UniProt Q9Y4K0); assay: SPR, Bio-Rad ProteOn, amine coupling, 25 C
[2] = molecular target: LOXL2 (lysyl oxidase-like 2) (human) (UniProt Q9Y4K0); assay: cell-based or functional assay

Chain of LOXL2 (lysyl oxidase-like 2) (human) (Q9Y4K0 26-774 limits assumed): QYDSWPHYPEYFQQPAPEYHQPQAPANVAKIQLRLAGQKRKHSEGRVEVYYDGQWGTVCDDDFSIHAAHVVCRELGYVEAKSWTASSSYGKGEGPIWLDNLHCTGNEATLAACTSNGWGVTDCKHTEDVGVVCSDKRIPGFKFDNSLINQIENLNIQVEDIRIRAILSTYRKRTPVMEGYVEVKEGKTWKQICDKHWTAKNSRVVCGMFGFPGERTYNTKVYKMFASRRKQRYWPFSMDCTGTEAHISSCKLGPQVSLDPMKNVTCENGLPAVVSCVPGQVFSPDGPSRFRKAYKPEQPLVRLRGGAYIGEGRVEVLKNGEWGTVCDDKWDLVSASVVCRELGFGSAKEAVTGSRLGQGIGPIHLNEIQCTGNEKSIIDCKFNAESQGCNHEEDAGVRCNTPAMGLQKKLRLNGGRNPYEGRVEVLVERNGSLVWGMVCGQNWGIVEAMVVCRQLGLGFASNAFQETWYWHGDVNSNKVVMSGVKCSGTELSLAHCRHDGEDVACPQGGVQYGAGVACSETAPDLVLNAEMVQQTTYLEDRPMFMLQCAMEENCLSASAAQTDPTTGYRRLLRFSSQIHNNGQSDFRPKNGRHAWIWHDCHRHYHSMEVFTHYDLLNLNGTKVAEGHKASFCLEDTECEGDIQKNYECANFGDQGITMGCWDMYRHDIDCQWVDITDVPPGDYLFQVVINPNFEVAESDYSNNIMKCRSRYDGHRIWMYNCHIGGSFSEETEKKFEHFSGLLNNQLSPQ

Kd [1]: 0.1 to 1 nM | t1/2 [1]: 1.65 h | apparent IC50, LOXL2 enzymatic activity (amplex red/HRP coupled assay, 1,5-diaminopentane substrate) [2]: 30 nM | α (effect of the antibody on substrate affinity; mode of inhibition) [2]: 1 | β (effect of the antibody on the rate of the enzyme; mode of inhibition) [2]: 0.5
B1: anti-LOXL2 antibody AB0023 (murine monoclonal antibody) (antibody, V domains shown)
VH: QVQLQQSGAELVRPGTSVKVSCKASGYAFTYYLIEWVKQRPGQGLEWIGVINPGSGGTNYNEKFKGKATLTADKSSSTAYMQLSSLTSDDSAVYFCARNWMNFDYWGQGTTLTVSS
VL: DIVMTQAAPSVSVTPGESVSISCRSSKSLLHSNGNTYLYWFLQRPGQSPQFLIYRMSNLASGVPDRFSGSGSGTAFTLRISRVEAEDVGVYYCMQHLEYPYTFGGGTKLEIK
